How the values were obtained:
autotaxin [1] = biological target: T1, autotaxin (Homo sapiens, UniProt Q13822); assay: NPP2 inhibitory assay (pNP-TMP substrate); format: biochemical; settings: mean of 2-3 measurements ± standard deviation, >1.0 = no inhibitory activity up to 1.0 μM
T1 construct: His; purchased R&D
Description: Whether an aptamer inhibits the enzyme activity of autotaxin can be evaluated, for example, by the following test. As a substrate of autotaxin, phosphodiester bond-containing synthetic substrate p-nitrophenyl thymidine 5′-monophosphate (pNP-TMP) (SIGMA) is used. A phosphodiester bond is cleaved by hydrolysis, and p-nitrophenol is liberated. The p-nitrophenol develops a yellow color, and the color is detected. For the assay, a 96-well plate (96-Well EIAsurasshuRIA Polystyrene Plates, Costar) was used, and the amount of the reaction mixture was 200 μL. Nucleic acid was prepared in solution A (see below-mentioned Example 1) (100 μL), pNP-TMP (20 μL) adjusted to 10 mM in the reaction mixture A was added, and the mixture was stirred well and heated at 37° C. for 5 min. On the other hand, 6 ng of autotaxin (Recombinant Human, manufactured by R&D) diluted with solution A was prepared (80 μL), and heated at 37° C. for 5 min. After heating, they were mixed to start an enzyme reaction. The final autotaxin concentration in the reaction solution was 0.3 nM, and the final substrate concentration was 1 mM. A plate containing the reaction mixture was heated at 37° C. for 24 hr, placed in a microplate reader SpectraMax190 (manufactured by Molecular Devices) and the absorbance was determined at wavelength 405 nm. The absorbance when nucleic acid is not added as 100% (A0), an enzyme activity rate was determined from the absorbance (A) of each test substance and according to the following formula.
Enzyme activity rate=(A/A0)×100
(§1) The concentration (IC50) of an inhibitor necessary for inhibiting the enzyme activity by 50% was determined.
Whether these nucleic acids show an autotaxin inhibitory activity was evaluated by the following method. As a substrate of autotaxin, phosphodiester bond-containing synthetic substrate p-nitrophenyl thymidine 5′-monophosphate (pNP-TMP) (SIGMA) was selected (hereinafter to be referred to as NPP2 inhibitory assay). A phosphodiester bond is cleaved by hydrolysis, and p-nitrophenol is liberated. The p-nitrophenol develops a yellow color, and the color is detected. For the assay, a 96-well plate (96-Well EIA/RIA Polystyrene Plates, Costar) was used, and the amount of the reaction mixture was 200 μL. As the reaction mixture, solution A was used. Nucleic acids were prepared in solution A (100 μL), pNP-TMP (20 μL) adjusted to 10 mM in the reaction mixture A was added, and the mixture was stirred well and heated at 37° C. for 5 min. On the other hand, 6 ng of autotaxin diluted with solution A was prepared (80 μL), and heated at 37° C. for 5 min. After heating, they were mixed to start enzyme reaction. The final autotaxin concentration in the reaction solution was 0.3 nM, and the final substrate concentration was 1 mM. A plate containing the reaction mixture was heated at 37° C. for 24 hr, placed in a microplate reader SpectraMax190 (manufactured by Molecular Devices) and the absorbance was determined at wavelength 405 nm. The absorbance when nucleic acids are not added as 100% (A0), an […] was determined from the absorbance (A) of each test substance and according to the following formula.
as §1

autotaxin [2] = biological target: T1, autotaxin; assay: Biacore surface plasmon resonance, autotaxin immobilized on CM4 chip, nucleic acid as analyte; format: binding; settings: maximum RU relative to SEQ ID NO: 22
autotaxin [3] = biological target: T1, autotaxin; assay: Biacore surface plasmon resonance, nucleic acid immobilized on SA chip, autotaxin as analyte; format: binding; settings: nucleic acid immobilized about 1500 RU, autotaxin 0.02 μM as analyte; maximum RU relative to SEQ ID NO: 10
Method: Biacore T100 manufactured by GE Healthcare is used for the measurement of binding strength. In one measurement method, an aptamer is first immobilized on a sensorchip. The immobilization amount is set to about 1500 RU. An autotaxin solution as an analyte prepared to 0.020 μM is injected by 20 μL, and binding of the autotaxin to the aptamer is detected.
All nucleic acids shown in SEQ ID NOs: 4-10 were produced by chemical synthesis. The binding activity of these nucleic acids to autotaxin was evaluated by the surface plasmon resonance method. For the measurement, Biacore T100 manufactured by GE Healthcare was used. The SA chips with streptavidin immobilized thereon were used as the sensor chips. Binding thereto was about 1500 RU of 16 nucleotide Poly dT of which biotin was bound to the 5′-terminus. The nucleic acids used as a ligand were added with Poly A (16 nucleotides) to the 3′-terminus, and were immobilized on SA chips by T-A annealing. The nucleic acids (20 μL) were injected at a flow rate of 20 μL/min to immobilize about 1500 RU of the nucleic acids. An autotaxin for analyte was prepared at 0.02 μM, and 20 μL thereof was injected. As a running buffer, solution A (mixed solution of 145 mM sodium chloride, 5.4 mM potassium chloride, 1.8 mM calcium chloride, 0.8 mM magnesium chloride, 20 mM Tris (pH 7.6), 0.05% Tween20) was used.

[4] = Table 1, autotaxin 0.3 nM, pNP-TMP 1 mM, 37° C. 24 hr

B1: 21 (nucleic acid)
chain: ACACTCACAGGCGCTGGCCACCACTGCACCGGAACCGCGAATGTGGTCGTGCATGGCCGCTAGT
modifications: aptamer; DNA, backbone and methylation of C not given here
Q: With B1 as the molecule, how does the IC50 (autotaxin [1]; Table 3) read?
A: The IC50 was 28 ± 11 nM.

Q: And the “Binding activity by Biacore” value (autotaxin [2])?
A: Its value is “+ (not less than that)”.

B2: 9 (nucleic acid)
chain: GTGGTCTAGCTGTACTCAGGCCGGAACCGGTGAAATTGGTCGCCTAATAAGCGAAATCCACAGTCAACGAGCTA
modifications: aptamer; DNA, backbone and methylation of C not given here
Q: With B2 as the molecule, how does the “Binding activity by Biacore” value (autotaxin [3]) read?
A: Its value is “+ (not less than that)”.

Q: What about the IC50 (autotaxin [1]; [4]) of the same molecule?
A: The IC50 was 36 ± 4 nM.

B3: 6 (nucleic acid)
chain: GTGGTCTAGCTGTACTCGGAACCGTACTCAACGGTCAGTACCTTTGCGCCGCAGCAAGCCACAGTCAACGAGCTA
modifications: DNA, backbone and methylation of C not given here
Q: Which “Binding activity by Biacore” value (autotaxin [3]) does the source give for B3 here?
A: The value was “+ (not less than that)”.

Q: And the IC50 (autotaxin [1]; [4])?
A: Its IC50 is 20 nM.

B4: 10 (nucleic acid)
chain: GTGGTCTAGCTGTACTCGCCGGAACCGTACTATGGTCGCGTTGTATGACGCTTGTATCCACAGTCAACGAGCTA
modifications: aptamer; DNA, backbone and methylation of C not given here
Q: With B4 as the molecule, how does the “Binding activity by Biacore” value (autotaxin [3]) read?
A: Its value is “+ (not less than that)”.

Q: What about the IC50 (autotaxin [1]; [4]) of the same molecule?
A: The IC50 was 21 ± 6 nM.

B5: 24 (nucleic acid)
chain: ACACTCACAGGCGCTGGCGAGTCGGAACCGAGCCGATTGGTCACTCGCGTGCATGGCCGCTAGT
modifications: aptamer; DNA, backbone and methylation of C not given here
Q: For B5, which IC50 (autotaxin [1]; Table 3) is on record?
A: Its IC50 is 32 ± 4.2 nM.

Q: What about the “Binding activity by Biacore” value (autotaxin [2]) of the same molecule?
A: The value was “+ (not less than that)”.

B6: 4 (nucleic acid)
chain: GTGGTCTAGCTGTACTCTCCGGAACCAGAGCAATTTGGTCGAGCGCTATCGGATGGTCCACAGTCAACGAGCTA
modifications: aptamer; DNA, backbone and methylation of C not given here
Q: B6 was tested. Which “Binding activity by Biacore” value (autotaxin [3]) did it give?
A: Its value is “+ (not less than that)”.

Q: What about the IC50 (autotaxin [1]; [4]) of the same molecule?
A: The IC50 was 16 ± 6 nM.

B7: 20 (nucleic acid)
chain: ACACTCACAGGCGCTGGGGTACGCTCGGAACCGAGGCAATTGGTCAGCGTGCATGGCCGCTAGT
modifications: aptamer; DNA, backbone and methylation of C not given here
Q: Which IC50 (autotaxin [1]; Table 3) does the source give for B7 here?
A: The IC50 was 37 ± 2 nM.

Q: What about the “Binding activity by Biacore” value (autotaxin [2]) of the same molecule?
A: The value was “+ (not less than that)”.

B8: 5 (nucleic acid)
chain: GTGGTCTAGCTGTACTCATGGACGGAACCAGAATACTTTTGGTCTCCATTGAGTACGCCACAGTCAACGAGCTA
modifications: aptamer; DNA, backbone and methylation of C not given here
Q: What does the source list for B8?
A: Binding activity by Biacore (autotaxin [3]): + (not less than that); IC50 (autotaxin [1]; [4]): 11 ± 5 nM

B9: 23 (nucleic acid)
chain: ACACTCACAGGCGCTGGCACGGACCGGAACCGGGACGCTCGGTCGACCGTGCATGGCCGCTAGT
modifications: aptamer; DNA, backbone and methylation of C not given here
Q: How did the IC50 (autotaxin [1]; Table 3) turn out when B9 was run?
A: Its IC50 is 75 nM.

Q: And the “Binding activity by Biacore” value (autotaxin [2])?
A: Its value is “+ (not less than that)”.

B10: 8 (nucleic acid)
chain: GTGGTCTAGCTGTACTCCGAAAGCCGGAACCGTGCCAATGGTCGCTACTTCAGCTCCCCACAGTCAACGAGCTA
modifications: aptamer; DNA, backbone and methylation of C not given here
Q: Which results are given for B10?
A: Binding activity by Biacore (autotaxin [3]): + (not less than that); IC50 (autotaxin [1]; [4]): 10 ± 2 nM

B11: 25 (nucleic acid)
chain: ACACTCACAGGCGCTGGCGACGTCGGAACCGTGTACCATGGTCACGTCGTGCATGGCCGCTAGT
modifications: aptamer; DNA, backbone and methylation of C not given here
Q: With B11 as the molecule, how does the IC50 (autotaxin [1]; Table 3) read?
A: Its IC50 is 31 ± 5.7 nM.

Q: What about the “Binding activity by Biacore” value (autotaxin [2]) of the same molecule?
A: Its value is “+ (not less than that)”.

B12: 22 (nucleic acid)
chain: ACACTCACAGGCGCTGGCCGGAACCGTGCATATGGTCGCCAGCACATCGTGCATGGCCGCTAGT
modifications: aptamer; DNA, backbone and methylation of C not given here
Q: What does the source list for B12?
A: IC50 (autotaxin [1]; Table 3): 30 ± 11 nM; Binding activity by Biacore (autotaxin [2]): + (not less than that)
